From the supplement of paper PMC9170038

System: K4 kissing-loop RNA reporter
Test: apparent KD of K4 kissing-loop reporter; higher = weaker reporter binding
Settings: Eterna round: R107
Procedure: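 RNA-MaP round R107: designed RNA switches with theophylline, tryptophan, arginine or FMN aptamers are transcribed on-chip within common flanks. They are titrated with a labelled K4 kissing-loop RNA reporter in RNA-MaP buffer (100 mM Tris pH 7.5, 80 mM KCl, 4 mM MgCl2), without ligand or with the indicated ligand. Median apparent KD per design.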

[1] = input ligand: theophylline 20 uM
[2] = input ligand: tryptophan 2.4 mM
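Further: bound reporter read as fluorescence of individual clusters on recovered sequencing chips by microscopy, with normalized cluster intensities fitted with a binding model.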

Sequence | apparent KD of K4 kissing-loop reporter (input ligand: FMN 200 uM) | apparent KD of K4 kissing-loop reporter (input ligand: arginine 13.2 mM) | apparent KD of K4 kissing-loop reporter (input ligand: none) | apparent KD of K4 kissing-loop reporter [1] | apparent KD of K4 kissing-loop reporter [2]
AAGGUUUAGCACGAUACCAGCCUGGAGGCCAGUGAUGUUGGCCGAUUUGAACAGAAUUAAGGCCCUUGGCAGCGUCUCUAAAACC [Dierra] | 191 nM | 180 nM | 192 nM | 144 nM | 176 nM
UGCAGUGAUGUUGCGAGUGGCAGAUACGAAGGAGCGUGGUGAGACACAGGUAGGUCGCGUAUCGAAAUUGCUGUCACUAAAAUGC [#8] | 385 nM | 411 nM | 501 nM | 425 nM | 460 nM
AAGAGAGCGAGAAGGAGCGAGAAAGCUAGUGCAUAUGCACUAGCAAAGCAGUGAUGUUGCACUCAGGUAGGUCGCUCGCUCUCAA [AK1.2 SS Arginine B] | 384 nM | 292 nM | 350 nM | 395 nM | 291 nM
UCCUGCAAUCAACCACGAAAGUGGUUCGAUACCAGAGUCGAAAGACUCCCUUGGCAGCGAGUGAUGUUCGAGCAGGUAAAAUAAA | 862 nM | 642 nM | 754 nM | 646 nM | 602 nM
CACCAUGAAUUCUCUAGGAGUGAUGUUUUUCGAGGACCGGUACGGCCGCCACUCGGACGAGGACCGUGGGAGCGGCGAAAAGACU [ghgmullin] | 206 nM | 225 nM | 329 nM | 152 nM | 309 nM
UUUUAAAUGUCUGAUACCAGAGAAAAUAUAUGUAGUGAUGUUAUAUACAAAUUUAAUAAGCUCCCUUGGCAGCAGUAUGAAUUUU [AstrosExc-TheB#12] | 616 nM | 766 nM | 873 nM | 784 nM | 552 nM
UCGCCGCUCACGGCCGCCACUAAGCCCAAGACCAGAGAGUGAUGUUCUAUCCACGUUUCAAUUUUUAGGACCGGGUGAAAGGCGA [theeternabot_sameState_KL_Trp_B_14] | 779 nM | 411 nM | 729 nM | 625 nM | 618 nM
UGUGUUUACCUGACUCAGUGAUGUUGAGAAGGAGCGUGCGAAAGCACAGGUAGGUCGCUCAACCUAAAAUUCAGGUGAGCACUAA [#SwitchBubble 11 #K4Early] | 366 nM | 202 nM | 267 nM | 263 nM | 213 nM
UGAUAGGACAGAAGGAGCGGGAGUGAUGUUCCCAAAUGGAUAGGUCGACAAAGUCGACCCUCCCAGGUAGGUCGCUGUCCUAUCU [ArgBX 7 #SwitchBubble #StaticStem] | 206 nM | 246 nM | 219 nM | 247 nM | 187 nM
GCCGUACGCAUGGAUACCAGCAUGCAUAUUAGCUAGUGAUGUUAGCGCUAUGCGAUGCUAUGCCCUUGGCAGCCAUGCGUACGGC | 124 nM | 108 nM | 127 nM | 247 nM | 132 nM
AUUUUUUUGUCAGGAUAUUAGUGUGGGUUUGGUUUGUUAGUGAUGUUGAUAUUUGUUUUAUGUAUUUAAGAAGGGAUUUAGCGGU [zzdxemullin] | 556 nM | 330 nM | 431 nM | 443 nM | 285 nM
GGCGUCUAAAAGUGCCUAGAGAGAAAGGAUACCAGCACCCGGCGGUGCCCUUGGCAGCCUAGCCCAGUGAUGUUGGGUCCUCUAA [Lasorian] | 380 nM | 159 nM | 312 nM | 336 nM | 286 nM
GCGCUUAAAUAAGGAUAUUACAGACUCAUCUACGAGUGAUGUUCGGUGCGCUGUGCACAGAGCCUGUAAGAAGGUAUAGCAUUGC [theeternabot_sameState_KL_FMN_B_41] | 1010 nM | 716 nM | 1180 nM | 811 nM | 861 nM
CGAGCUUCCUGGGAUACCAGUCGGAGUCUCAGAGCUCGGAGUGAUGUUCUGGGAUGUUUCGGCCCUUGGCAGCUCUGGGACUCCU [#2 Exclusion - Theophylline B Attempt #20 (HarryS)] | 1000 nM | 576 nM | 767 nM | 883 nM | 797 nM
CGCAGUGAUGUUGCGAGUAGCUACAGGGAAGGAGCGUGCUAGAGCACAGGUAGGUCGCCCACGCAGUGAUGUUGUGUUAAAGGGU [Exclusion Arginine A GF 12] | 141 nM | 116 nM | 123 nM | 149 nM | 117 nM
CAGCAUCAGGUUCAAACUGCAUGUACUGAUACCAGUCUUAAGAUCGACCCUUGGCAGCAGCUCCCGAGUGAUGUUCGUAGCGAGC [theeternabot_exclusion_KL_Theo_A_41] | 362 nM | 339 nM | 356 nM | 401 nM | 336 nM
AGCCAGCGUACAUCACUCUGGCUGCUGGAUACCAGCUCGGAAACGAGCCCUUGGCAGCCAGAACUUGCAGUGAUGUUGCAAGUAA [Design12] | 460 nM | 276 nM | 402 nM | 458 nM | 345 nM

Sequence | apparent KD of K4 kissing-loop reporter (input ligand: FMN 200 uM) | apparent KD of K4 kissing-loop reporter (input ligand: arginine 13.2 mM) | apparent KD of K4 kissing-loop reporter (input ligand: none) | apparent KD of K4 kissing-loop reporter [1] | apparent KD of K4 kissing-loop reporter [2]
UUCGUCGCGCAUGAUACCAGCGAGAUUUAACGCCGAAUCCUCACGCAGUGAUGUUGCACCCGCCCUUGGCAGCAUAGCCGGUUAC [theeternabot_sameState_KL_Theo_B_13] | 250 nM | 304 nM | 328 nM | 344 nM | 199 nM
CCACAAUAUGGAAGGAGCGCCAGUGAUGUUGGUGCUUGCUUUAGGUAAGACCGGCCUAUUUGGCAGGUAGGUCGCCAUAUUCAAC [Ageat] | 103 nM | 89.5 nM | 97.7 nM | 89 nM | 97.2 nM
UUCAGACUACUACUAUUUAGUAGUAUAUACUAGGAUAUCCAGAUAUGGAGAAGGAGUGAUGUUCCUUAGUAGUAGUGAAUUAAAU [KL-XFMN-A6] | 145 nM | 138 nM | 128 nM | 144 nM | 114 nM
GGUGACGGCCAGGAGUGAUGUAUAGAAUAGCGAGGACCGGUACGGCCGCCACUCGUGAAGAAAAGGGAGUGAUGUUCCGUAAUGG [Kazoo B] | 380 nM | 284 nM | 450 nM | 229 nM | 302 nM
CGAUACGGAAAUACGUGUCUCUAUUCAGAAGGAGCGUGGUAGUACACAGGUAGGUCGCUGAAUUUUAAACUAGUGAUGUUAGUCU [JR_SSArginiA_Sub005] | 317 nM | 281 nM | 331 nM | 292 nM | 259 nM
UCUGAAUUAUCUGAUACCAGACUUUUUGUAUUUAUUAAAACUAGUGAUGUUAGUUUAUCUGUCCCUUGGCAGCAGUUUCUACAGA [JR_Nu_ExcTheophyB_Sub022] | 79.9 nM | 95.4 nM | 83.8 nM | 90.8 nM | 72.5 nM
UUAGUCUAGAGAGGAUAUCAGUGAUGUUGAUAUCAAGAUCUAAGAUAGAAUUCUAUCUUAGAUCAAUGAGAAGGCUCUAGACAUU [AK1.1 Exc FMN B] | 993 nM | 144 nM | 151 nM | 128 nM | 147 nM
CUUAAGAUAUGAGUGAUGUUCAUGUCCGAAGGAGCGUGCGAAAGCACAGGUAGGUCGCGGAUGUGAGUGAUGUUCAUGUAAGCGA [KL-XArg-A12 #analogue] | 172 nM | 105 nM | 119 nM | 135 nM | 153 nM
UUGCGUCUCUGAGGAUAUCAGAACAGAGUGAUGUUCUGUCAACGCCCAGUGAUGUUGGAUGCGAUCUGAGAAGGCAGUGGGCGCG [Same State FMN B GF 10] | 202 nM | 188 nM | 219 nM | 177 nM | 184 nM
GCCGUAGAUUGAAGGAGCGCCAUCUUACCAAGAGUGAUGUUCUUUGGUACCAUGUACAGCUGGCAGGUAGGUCGCAAUCUACGGC | 192 nM | 151 nM | 173 nM | 181 nM | 169 nM
GGUGACAACCAGAAGUGAUGUAUAGAAUAGCGAGGACCGGUACGGCCGCCACUCGUGAAGAGAAAGGAGUGAUGUUCCGUAAUGG [Kazoo C4] | 250 nM | 260 nM | 271 nM | 243 nM | 85.1 nM
UGAUAGGACAGAAGGAGCGGUAGUGAUGUUACCAAAAGAAUAAGGUGUCAAAAGACACCCUGCCAGGUAGGUCGCUGUCCUAUCU | 97.4 nM | 111 nM | 90.9 nM | 123 nM | 86 nM
AGAACUGUCUGAGAUACCAGCCAUAGGAGUGAUGUUCCUAGCUCCACAAAGUGGAGCCAUAGCCCUUGGCAGCUCAGACAGUUCA [Omei KL Theo B SS A v7] | 1040 nM | 763 nM | 1150 nM | 771 nM | 823 nM
UGAUAGGACAGAAGGAGCGGUAGUGAUGUUGCCAAAAGGAUAAGGUGUCAAAAGACACCCUGCCAGGUAGGUCGCUGUCCUAUCU | 126 nM | 136 nM | 123 nM | 110 nM | 99.8 nM
UGUCAUUGGUCGGCCGCCACUAGGACCGGGUUUUGCCUAGUGAUGUUAGUAUGAACGGCCGCCACUAGGACCGGGACCGAUGACU [KL-SSTryp-B26 #DoubleAptamer] | 468 nM | 279 nM | 473 nM | 377 nM | 105 nM
CAUUCUAUAUGCAGUGAUGUUGCAACUGAUACCAGUAUCGAAAGAUACCCUUGGCAGCGGAAAACCGCUACGUAAUUUAAGAAUG [Ex Theophylline A K4 22] | 375 nM | 445 nM | 489 nM | 523 nM | 327 nM
